Source: patent publication US20090269346A1 (RAPTOR PHARMACEUTICAL, published 2009)

Tests used:
LRP2 CR3031 = biological target: T1, LRP2 CR3031 (UniProt P98164 3677-3755); assay: solid-phase binding assay, ligand at 80 nM on coated CR proteins, blank-corrected absorbance
T1 construct: domain: CR30 and CR31; its making is not described
Experimental: (§1) Solid phase binding assays-Purified, refolded CR protein (1 μg) was bound to Nunc Maxisorp™ 96-well plates in TBS pH 8 supplemented with 5 mM CaCl₂ (TBSC) overnight at 4° C. Wells were washed with TBSC and then blocked with TBSC containing 2% bovine serum albumin (BSA). RAP ligands were then incubated with the immobilized receptor at a range of concentrations for 2 hours in the above blocking buffer supplemented with 0.05% Tween-20 at room temperature. Control wells contained no added ligand. As an additional control, to determine whether the absence of calcium affected binding, 10 mM EGTA was included in the incubation medium for some samples. Wells were washed with TBSTC and bound ligands detected with polyclonal anti-RAP (BP41/42, 1:1,000, BioMarin). Excess primary antibody was removed and wells washed before incubation with the secondary antibody, HRP-conjugated goat anti rabbit IgG (Bio-Rad). After washing, TMB substrate solutions (Bio-Rad) were added to detect HRP. Color development was stopped with 1N HCl. Absorption at 450 nm was measured with a microplate spectrophotometer (Molecular Devices). Data were plotted and Kd values derived by non-linear regression with the assumption of single-site binding (GraphPad Prism).
(§2) Binding experiments were also carried out comparing the binding of RAP d3 and RAPv2A d3 to an array of CR pairs (FIG. 9), similar to the experiment depicted in FIG. 5. For these experiments, RAP d3 and RAPv2A d3 (or RAPv2 d3) were each incubated at 80 nM concentrations with LRP1 CR3-5, LRP6 CR12, LRP6 CR23, LRP6 CR1-3, LRP2 CR89, LRP2 CR2728, LRP2 CR3031, LRP2 CR3435, LRP2 CR34-36, VLDLR CR78, VLDLR CR6-8, MAT CR12, MAT CR23 and MAT CR34. Samples were tested twice, in duplicate, and values combined. Means and standard deviations were then calculated. Blank values obtained from wells incubated in the absence of ligand were used to correct absorbance data.

ST14 CR12 = biological target: T2, ST14 CR12 (human, UniProt Q9Y5Y6 452-524); assay: as above
T2 construct: also called MAT CR12; Mat CR12
T2 sequence: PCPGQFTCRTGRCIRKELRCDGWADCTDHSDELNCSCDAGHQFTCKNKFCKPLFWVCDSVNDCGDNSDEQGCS
Experimental: as §1, §2

T1 sequence (P98164 3677-3755): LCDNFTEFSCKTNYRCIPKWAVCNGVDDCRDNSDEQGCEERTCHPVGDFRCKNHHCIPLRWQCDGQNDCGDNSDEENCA

- binding result (LRP2 CR3031): no binding (tested: 80 nM)
- binding result (ST14 CR12): no binding (tested: 80 nM)
B1: wild-type RAP d3 (ligand)
chain: LDRLRRVSHQGYSTEAEFEEPRVIDLWDLEQSANLTDKELEAFREELKHFEAKIEKHNHYQKQLEIAHEKLRHAESVGDGERVSRSREKHALLEGRTKELGYTVKKHLQDLSGRISRAR
notes: expressed in E. coli from pET30(+)a; not shown: vector-encoded N-terminal tags of pET30(+)a (hexahistidine and S-peptide, as stated for the CR constructs)
